{"source": "patent US20040161776A1", "key": {"[1]": {"molecular_target": "prostate specific membrane antigen (PSMA), full-length human (human) (UniProt Q04609)", "sequence (Q04609 whole entry)": "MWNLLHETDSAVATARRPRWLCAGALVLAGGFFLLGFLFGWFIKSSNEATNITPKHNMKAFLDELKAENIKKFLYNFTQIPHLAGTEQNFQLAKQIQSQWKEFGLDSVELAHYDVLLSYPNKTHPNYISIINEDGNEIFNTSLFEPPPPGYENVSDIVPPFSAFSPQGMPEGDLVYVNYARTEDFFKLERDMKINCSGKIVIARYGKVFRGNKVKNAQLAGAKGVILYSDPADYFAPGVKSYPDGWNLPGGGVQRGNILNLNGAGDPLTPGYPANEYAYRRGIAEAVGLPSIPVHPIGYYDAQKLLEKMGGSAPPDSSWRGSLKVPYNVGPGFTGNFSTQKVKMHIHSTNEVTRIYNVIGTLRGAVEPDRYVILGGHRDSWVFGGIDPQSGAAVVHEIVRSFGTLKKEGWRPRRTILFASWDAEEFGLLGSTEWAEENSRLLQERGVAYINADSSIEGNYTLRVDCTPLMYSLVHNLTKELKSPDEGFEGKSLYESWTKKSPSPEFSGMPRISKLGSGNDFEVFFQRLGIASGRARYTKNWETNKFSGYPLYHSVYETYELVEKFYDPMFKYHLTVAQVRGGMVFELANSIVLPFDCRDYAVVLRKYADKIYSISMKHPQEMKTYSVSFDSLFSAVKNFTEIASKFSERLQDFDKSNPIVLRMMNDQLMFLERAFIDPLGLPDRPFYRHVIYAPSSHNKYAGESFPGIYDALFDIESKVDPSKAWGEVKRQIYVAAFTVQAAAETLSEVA", "test": "average, PSMA-3T3 cells"}, "[2]": {"molecular_target": "prostate specific membrane antigen (PSMA), full-length human (human) (UniProt Q04609)", "test": "radiolabeled mAb bound to PSMA-3T3 cell pellets"}, "[3]": {"molecular_target": "prostate specific membrane antigen (PSMA), full-length human (human) (UniProt Q04609)"}, "[4]": {"molecular_target": "prostate specific membrane antigen (PSMA), full-length human (human) (UniProt Q04609)", "test": "fraction of 177Lu labeled control antibody bound to cells, column PSMA; column 3T3 (no PSMA): 0.7"}, "[5]": {"molecular_target": "prostate specific membrane antigen (PSMA), full-length human (human) (UniProt Q04609)", "test": "competition on PSMA-3T3 cells; unmodified mJ591 varied, competitor 111In radiolabeled 4.40"}, "[6]": {"molecular_target": "prostate specific membrane antigen (PSMA), full-length human (human) (UniProt Q04609)", "test": "fraction of 177Lu labeled antibody bound to cells, column PSMA; column 3T3 (no PSMA): 1.7"}}, "note": "Where “and” joins values, the source holds several entries; their conditions need not be identical. Equal entries are not always repeated."}
{"substance": "111In radiolabeled CHX-A''-DTPA antibody mJ591", "values": [{"measurement": "Immunoreactivity (%)", "setting": "[1]", "value": 56.7, "unit": "%"}, {"measurement": "Immunoreactivity (%)", "setting": "[2]", "value": "58.5% and 54.9%"}]}
{"substance": "IgG (antibody)", "values": [{"measurement": "PSMA+/PSMA- Ratio of tumor uptake, Mean", "setting": "[3]", "value": 1.16}, {"measurement": "Cell Based Immunoreactivity (%)", "setting": "[4]", "value": 5.9, "unit": "%"}]}
{"substance": "mAb J591 (murine) (antibody)", "values": [{"measurement": "IC50 (read off the curve)", "setting": "[5]", "value": 3, "unit": "nM"}]}
{"substance": "mJ591 (antibody)", "values": [{"measurement": "Cell Based Immunoreactivity (%)", "setting": "[6]", "value": 46.2, "unit": "%"}, {"measurement": "PSMA+/PSMA- Ratio of tumor uptake, Mean", "setting": "[3]", "value": 2.5}]}
